This note sets out measurements from patent US20260234242A1 (HAINAN SIMCERE ZAIMING PHARMACEUTICAL, published 2026).

Test [1] deals with T1, human CDH6 on tumor cells (OVCAR3 cells, PA-1 cells) (human, UniProt P55285 54-790).
T1 sequence: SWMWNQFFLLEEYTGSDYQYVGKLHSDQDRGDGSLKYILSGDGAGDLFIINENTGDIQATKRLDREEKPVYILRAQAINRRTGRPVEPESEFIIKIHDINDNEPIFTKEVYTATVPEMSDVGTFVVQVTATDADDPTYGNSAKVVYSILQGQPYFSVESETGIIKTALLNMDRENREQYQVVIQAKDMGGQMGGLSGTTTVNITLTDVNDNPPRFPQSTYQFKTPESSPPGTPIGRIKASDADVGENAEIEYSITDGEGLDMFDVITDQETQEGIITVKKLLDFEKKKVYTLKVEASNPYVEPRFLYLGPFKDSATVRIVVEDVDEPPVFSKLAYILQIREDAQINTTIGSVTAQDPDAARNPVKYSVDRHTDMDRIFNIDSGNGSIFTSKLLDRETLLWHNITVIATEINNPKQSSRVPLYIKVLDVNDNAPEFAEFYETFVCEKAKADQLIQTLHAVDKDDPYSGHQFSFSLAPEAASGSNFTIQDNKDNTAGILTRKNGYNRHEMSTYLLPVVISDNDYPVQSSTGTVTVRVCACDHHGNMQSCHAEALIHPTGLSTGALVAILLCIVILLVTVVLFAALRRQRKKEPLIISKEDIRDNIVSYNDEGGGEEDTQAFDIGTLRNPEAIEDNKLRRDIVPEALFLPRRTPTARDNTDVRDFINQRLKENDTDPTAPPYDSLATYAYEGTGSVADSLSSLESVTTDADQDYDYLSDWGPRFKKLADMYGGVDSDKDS
The test can be described thus: FACS, OVCAR3 cells. How it is done: OVCAR3 cells with high expression of CDH6 and PA-1 cells with moderate expression of CDH6 were used to detect the binding activity of the antibodies to the cells. […] The cells were washed once with PBS, counted, resuspended to 2×10⁶ cells/mL in an FACS buffer (PBS+2% FBS), and then added to a 96-well plate at 50 μL/well. The chimeric antibodies were diluted with FACS buffer (PBS+2% FBS) and added to the 96-well plate at 50 μL/well, and the plate was incubated at 4° C. for 1 h. […] The dilution was added to the 96-well plate at 50 μL/well, and the plate was incubated at 4° C. for 1 h. After the plates were centrifuged and washed 2 times with PBS, the cells were resuspended in an FACS buffer. The mean fluorescence intensity (MFI) was measured using FACS Canton II (BD). Analysis was performed by the GraphPad Prism software, data were fitted, and EC50 values were calculated. The chimeric antibodies tested had strong binding to both OVCAR3 cells and PA-1 cells.
According to the above sequences, heavy chain (HC) and light chain (LC) plasmids were constructed (the nucleic acid sequences encoding the VH and VL of the antibodies were recombined into an expression vector carrying a signal peptide (SEQ ID NO: 132, […]) and a heavy chain constant region/light chain constant region sequence to obtain recombinant plasmids expressing VH—CH1-Fc/VL-CL). According to the expression and purification methods in Example 2, the hCDH6-6 humanized antibodies were obtained, and the binding activity of the humanized antibodies was detected by ELISA and FACS (see 2.2 and 2.3 for the method).

The target of test [2] is T2, his-tagged human CDH6 extracellular region protein (hCDH6 ECD-his) (human, UniProt P55285 19-615).
T2 construct: also called Human CDH6-his; hCDH6-his; not shown: his tag
T2 sequence: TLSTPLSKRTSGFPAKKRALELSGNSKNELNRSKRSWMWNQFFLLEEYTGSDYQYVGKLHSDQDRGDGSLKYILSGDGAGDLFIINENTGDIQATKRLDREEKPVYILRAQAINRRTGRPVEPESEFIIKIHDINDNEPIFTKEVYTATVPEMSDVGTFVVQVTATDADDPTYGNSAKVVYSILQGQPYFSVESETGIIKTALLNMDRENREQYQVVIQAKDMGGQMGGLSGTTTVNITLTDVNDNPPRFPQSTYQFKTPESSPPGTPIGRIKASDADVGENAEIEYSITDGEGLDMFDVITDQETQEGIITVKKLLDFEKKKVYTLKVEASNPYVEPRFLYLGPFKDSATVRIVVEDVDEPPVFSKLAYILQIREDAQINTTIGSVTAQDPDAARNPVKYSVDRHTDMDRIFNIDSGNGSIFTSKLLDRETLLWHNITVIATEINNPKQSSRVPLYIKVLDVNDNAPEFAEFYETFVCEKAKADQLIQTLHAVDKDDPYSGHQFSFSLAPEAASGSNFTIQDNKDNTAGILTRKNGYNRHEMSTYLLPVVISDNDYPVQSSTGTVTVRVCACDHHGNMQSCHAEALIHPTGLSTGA
The test can be described thus: SPR Biacore, antibody captured on Protein A. How it is done: The affinity of the antibody for the antigen was determined by a multi-cycle kinetic method using a BIAcore 8K instrument. In each cycle, the antibody to be tested was captured using a Protein A chip (purchased from GE, Cat. No. 29-1275-56), and then the antigen human CDH6 protein (hCDH6-his, conventionally synthesized) was injected. The association and dissociation processes of the antibody with the antigen protein were recorded, and finally, the chip was regenerated using Glycine pH 1.5, wherein the mobile phase was HBS-EP+ (10 mM HEPES, 150 mM NaCl, 3 mM EDTA, 0.05% surfactant P20, and 1 mM Ca), the flow rate was 30 μL/min, the association time was 240 s, the dissociation time was 300 s, the regeneration time was 30 s, the detection temperature was 25° C., and the antigen concentration was 31.25-1000 nM. The data were analyzed using Biacore 8K analysis software (version No. 2.0) based on the 1:1 binding model to fit the antibody-antigen binding kinetic parameters, including the association rate constant ka, the dissociation rate constant kd, and the equilibrium dissociation constant KD. The affinity values of the control antibody DS-H01L02 were undetectable. Antibodies not shown in the table had undetectable affinity values.
Four hCDH6-6 humanized antibodies with fewer back mutations were selected, and the affinity for human CDH6 protein was further confirmed using Biacore.

B1: hCDH6-6-H2L2 (antibody, V domains shown)
VH: EVQLVQSGAEVKKPGASVKVSCKASGYTFTDYYMAWVRQAPGQGLEWMGYIFPNSGGTDYSQKFKGRVTLTVDKSTSTVYMELSSLRSEDTAVYYCARELGADYGDYYAMDHWGQGTTVTVSS
VL: DIQMTQSPSSLSASVGDRVTITCRASENIDSYLAWYQQKPGKSPKLLVYSATLLADGVPSRFSGSGSGTDYTLTISSLQPEDFATYYCQHYYRTPPTFGQGTKLEIK
notes: Humanized
B1: in test [1], the EC50 (in general, the concentration that produces a half-maximal response) was found to be 0.56 nM and the “Max MFI” value came out at 14300 MFI. In test [2], the Kd (commonly the equilibrium constant for the complex coming apart) turned out to be 89.8 nM; the koff (commonly the rate constant with which the complex falls apart) worked out at 0.00468 s⁻¹; the kon (in general, the rate constant with which the complex forms) stood at 52100 M⁻¹ s⁻¹.

B2: CHI-CDH6-6 (antibody, human IgG1, kappa, V domains shown)
VH: EVQLQQSGPELVKPGDSVKMSCKASGYTFTDYYMAWVRQSHRKSLEWIGYIFPNSGGTDYSQKFKGKATLTVDKSSSTVYMELHSLTSEDSAVYYCARELGADYGDYYAMDHWGQGTSVSVSS
VL: DIQMTQSPASLSASVGETVTITCRASENIDSYLAWYQQKQGKSPQLLVYSATLLADGVPSRFSGSGSGTQYSLKINSLKSEDVARYYCQHYYRTPPTFGSGTKLEIKR
notes: also called CHI-hCDH6-6; chimeric antibody of murine CDH6-6
Regarding B2, in test [1], the concentration giving a half-maximal response (EC50) was found to be 0.68 nM and the “Max MFI” value stood at 14100 MFI. In test [2], binding was characterised by a dissociation constant (Kd) of 87.1 nM, the koff is 0.00424 s⁻¹ and the on-rate (kon) was 48700 M⁻¹ s⁻¹.
